Biological target: T1, CRY1 (human (endogenous in HEK293), UniProt Q16526 1-586)
T1 sequence (looked up): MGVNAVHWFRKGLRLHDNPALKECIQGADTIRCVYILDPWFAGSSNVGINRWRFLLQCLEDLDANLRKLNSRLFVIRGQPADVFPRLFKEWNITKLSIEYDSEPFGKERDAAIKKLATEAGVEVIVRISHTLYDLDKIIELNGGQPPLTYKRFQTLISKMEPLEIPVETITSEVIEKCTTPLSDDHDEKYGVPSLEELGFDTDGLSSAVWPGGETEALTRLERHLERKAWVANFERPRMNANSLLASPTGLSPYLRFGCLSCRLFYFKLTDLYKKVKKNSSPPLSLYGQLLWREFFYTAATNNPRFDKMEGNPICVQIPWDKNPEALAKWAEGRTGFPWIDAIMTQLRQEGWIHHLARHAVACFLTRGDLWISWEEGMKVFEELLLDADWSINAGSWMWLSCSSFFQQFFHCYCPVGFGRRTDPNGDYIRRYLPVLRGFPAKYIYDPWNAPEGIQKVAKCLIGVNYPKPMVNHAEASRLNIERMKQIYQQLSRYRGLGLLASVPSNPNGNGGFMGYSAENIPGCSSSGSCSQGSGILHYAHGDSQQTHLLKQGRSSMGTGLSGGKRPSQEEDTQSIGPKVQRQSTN
Assay: co-IP

B1: BMAL1-luciferase fusion protein (natural protein)
chain: not shown
Q: How did the “fold luciferase activity in the precipitate over the IgG control” value turn out when B1 was run?
A: The value was about 3 fold.

Source: article PMC8336894 (Genes & Development, 2021)
